According to patent US20240350586A1 (TSINGHUA UNIVERSITY, published 2024):

Assays:
HA-CCT3 = target: T1, HA-CCT3 (human, UniProt P49368 1-545); assay: co-IP with T7-LC3C in HEK293T
T1 construct: Amplified from HEK293T cDNA; not shown: N-terminal HA tag
T1 sequence: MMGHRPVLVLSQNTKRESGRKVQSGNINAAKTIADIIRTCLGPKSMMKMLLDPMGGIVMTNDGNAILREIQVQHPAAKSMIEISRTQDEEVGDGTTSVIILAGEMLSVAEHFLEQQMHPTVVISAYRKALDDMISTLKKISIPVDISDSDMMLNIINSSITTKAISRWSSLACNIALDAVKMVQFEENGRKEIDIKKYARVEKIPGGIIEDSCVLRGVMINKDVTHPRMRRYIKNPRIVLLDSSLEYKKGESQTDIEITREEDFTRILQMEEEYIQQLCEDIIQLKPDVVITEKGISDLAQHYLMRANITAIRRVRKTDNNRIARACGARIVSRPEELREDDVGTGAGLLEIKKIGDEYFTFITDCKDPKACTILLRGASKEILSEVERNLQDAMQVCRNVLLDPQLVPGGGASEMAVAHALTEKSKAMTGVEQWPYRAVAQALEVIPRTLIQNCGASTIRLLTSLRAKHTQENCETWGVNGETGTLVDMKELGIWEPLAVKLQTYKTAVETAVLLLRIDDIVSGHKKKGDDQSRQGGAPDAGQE
Experimental: (§1) The data are representative of three independent experiments. [0146] […] The data are representative of three independent experiments. [0147] […] The data are representative of three independent experiments. [0148] […] The interaction of the peptides with T7-GABARAP or T7-GABARAPL1 proteins was analyzed by in vitro pull-down. The data are representative of three independent experiments. [0149] […] The data are representative of three independent experiments. [0150] […] [0151] (K) Quantification of Q103-HTT-GFP area/DAPI area (mean±SEM) as shown in [0152] (J). 48 h represents IB accumulation stage and 72 h represents clearance stage. P values are indicated (two-tailed t test, >20 views from three independent experiments). [0153] […] The data are representative of three independent experiments. [0154] […] The data are representative of three independent experiments. [0155] […] The data are representative of three independent experiments.
(§2) Co-immunoprecipitation was performed essentially as described before. In brief, 24 h after transfection, the cells were collected and lysed on ice for 30 min in co-IP buffer (50 mM Tris/HCl pH 7.4, 150 mM NaCl, 1 mM EDTA, 0.5% NP40) with protease inhibitor mixture, and the lysates were cleared by centrifugation. The resulting supernatants were incubated with indicated agarose or magnetic beads and rotated at 4° C. for 3 h. The agarose was washed five times with co-IP buffer.

HSP90AB1-HA = target: T2, HSP90AB1-HA (Homo sapiens (Human), UniProt P08238 2-724); assay: co-IP with T7-LC3C in HEK293T
T2 construct: Plasmid pCDNA3-HSP90AB1-HA (addgene 22487); not shown: C-terminal HA tag
Experimental: as §1, §2

[1] = target: T3, CCT2 D2-P7 fusion protein (Homo sapiens (Human), UniProt P78371 217-519); assay: co-IP
T3 construct: D2 domain of CCT2 fused to the P7 peptide of CCT2; also called HA-D2-P7; not shown: HA tag of plasmid pFUGW-HA-D2-P7
T3 sequence: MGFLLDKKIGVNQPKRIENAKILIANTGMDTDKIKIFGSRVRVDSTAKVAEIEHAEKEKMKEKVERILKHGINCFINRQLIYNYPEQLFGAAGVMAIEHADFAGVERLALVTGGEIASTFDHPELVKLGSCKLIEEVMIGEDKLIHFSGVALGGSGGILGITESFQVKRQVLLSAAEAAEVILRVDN
Experimental: as §2, with “buffer. As for the BFP-tagged Q103, the supernatants were incubated with rabbit anti-BFP antibodies and Protein A/G PLUS-Agarose according to the manufacturers' protocol. After washing, 2×SDS loading buffer was added to the beads, and immunoblot was performed as described previously.” for “buffer.”

[2] = target: T4, GFP-CCT2 D3 (aa369-535 of CCT2) (human, UniProt P78371 369-535); assay: co-IP of GFP-tagged CCT2 variants with T7-LC3C in HEK293T
T4 construct: also called C-terminal one-third of CCT2; not shown: GFP tag
T4 sequence: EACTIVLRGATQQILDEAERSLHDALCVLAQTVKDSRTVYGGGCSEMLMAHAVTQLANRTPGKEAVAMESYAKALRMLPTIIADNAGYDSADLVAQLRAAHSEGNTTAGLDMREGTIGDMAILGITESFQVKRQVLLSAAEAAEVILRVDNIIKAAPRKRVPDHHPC
Excerpt: The cells were permeabilized with digitonin before fixation. [0136] (G) Quantification of LC3 around Q103-HTT IB (mean±SEM) as shown in (F). […] [0137] […] The cells were permeabilized with digitonin before immunoblot analysis. LE, long exposure; SE, short exposure. [0138] (I) Quantification of normalized Q103-HTT (mean±SEM) in (H). […] [0139] […] The VLIR motif VIL is highlighted in red. [0140] […] The data are representative of three independent experiments. [0141] […] The cells were permeabilized with digitonin before fixation. [0142] (M) Quantification of LC3 around IBs (mean±SEM) as shown in (L). […] [0143] […] [0144] (O) Quantification of normalized Q103-HTT (mean±SEM) in (N).
as §2, with “buffer. As for the BFP-tagged Q103, the supernatants were incubated with rabbit anti-BFP antibodies and Protein A/G PLUS-Agarose according to the manufacturers' protocol. […]” for “buffer.”

T2 sequence (P08238 2-724 limits assumed): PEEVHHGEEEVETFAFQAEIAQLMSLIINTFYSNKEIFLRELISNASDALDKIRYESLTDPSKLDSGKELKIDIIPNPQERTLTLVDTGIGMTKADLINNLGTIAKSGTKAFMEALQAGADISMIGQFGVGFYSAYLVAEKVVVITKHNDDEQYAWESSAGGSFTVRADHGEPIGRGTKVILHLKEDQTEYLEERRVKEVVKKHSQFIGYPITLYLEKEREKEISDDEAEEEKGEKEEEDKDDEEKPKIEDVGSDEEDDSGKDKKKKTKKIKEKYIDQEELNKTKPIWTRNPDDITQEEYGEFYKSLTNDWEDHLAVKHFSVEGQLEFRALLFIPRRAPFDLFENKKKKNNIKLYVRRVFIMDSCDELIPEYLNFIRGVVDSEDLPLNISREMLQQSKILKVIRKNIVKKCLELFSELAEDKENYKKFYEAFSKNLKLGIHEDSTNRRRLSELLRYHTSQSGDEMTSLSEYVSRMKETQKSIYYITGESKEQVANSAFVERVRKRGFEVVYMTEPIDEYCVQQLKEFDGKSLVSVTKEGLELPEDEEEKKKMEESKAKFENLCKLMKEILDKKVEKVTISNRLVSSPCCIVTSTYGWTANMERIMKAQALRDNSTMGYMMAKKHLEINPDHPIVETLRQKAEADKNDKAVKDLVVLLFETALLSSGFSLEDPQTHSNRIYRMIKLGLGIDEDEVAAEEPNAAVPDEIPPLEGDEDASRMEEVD

binding result (HA-CCT3): binds
binding result (HSP90AB1-HA): no binding
binding result [1]: binds
binding result [2]: binds
B1: T7-LC3C (expressed in cells) (other, UniProt Q9BXW4 1-126, looked up)
chain: MPPPQKIPSVRPFKQRKSLAIRQEEVAGIRAKFPNKIPVVVERYPRETFLPPLDKTKFLVPQELTMTQFLSIIRSRMVLRATEAFYLLVNNKSLVSMSATMAEIYRDYKDEDGFVYMTYASQETFG
notes: Expressed from pCDNA3-T7-LC3C; not shown: T7 tag
